Experimental data from patent CN113150138A.

Molecular target: 重组KPC-2蛋白 (recombinant KPC-2 protein, Klebsiella pneumoniae carbapenemase KPC-2) (Klebsiella pneumoniae (肺炎克雷伯菌)) (UniProt Q848S6)
Assay: indirect ELISA, KPC-2 coated at 100 ng/well, antibody diluted 1:10000 to 1:2560000

Chain of UniProt Q848S6 (Q848S6 25-293): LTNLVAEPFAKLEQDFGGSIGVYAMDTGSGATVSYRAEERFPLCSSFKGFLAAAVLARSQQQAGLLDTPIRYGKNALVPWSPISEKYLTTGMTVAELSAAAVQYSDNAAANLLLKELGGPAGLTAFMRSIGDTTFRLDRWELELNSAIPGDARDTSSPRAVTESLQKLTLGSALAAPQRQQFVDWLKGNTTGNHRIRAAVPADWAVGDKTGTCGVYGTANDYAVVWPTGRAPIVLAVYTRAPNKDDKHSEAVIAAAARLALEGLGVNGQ

Binder | 效价 (ELISA titer, highest positive dilution) (dilution factor)
KPC-2单克隆抗体 1D7 (antibody, V domains shown) VH: EVQLQQSGPELVKPGASMKISCKASGYSFTGYTMNWVKQSHGKNLEWIGLINPYNGVTTYNQRFKDKATLTVDKSSITAYMELLSLTSEDSAVYYCARRGLLGLYAMDYWGQGTSVTVSS VL: DVQITQSPSYLAASPGETITINCRASESIFKFLAWYQEKPGKTNRLLIYSGSTLQSGIPSRFSGSGSGTDFTLTISSLEPEDFAMYYCQQHNEYPLTFGAGTKLELK | > 2e+06
KPC-2单克隆抗体 4B2 (antibody, V domains shown) VH: QVQLQQPGAELVKPGASVKMSCKASGYTFTSYNMHWVKQTPGQGLEWIGGLYPGNGDTSYNQKFKGRATLTADKSSSTAYMKLSSLTSEDSAVYFCARVGYGHYYFDYWGQGTTLTVSS VL: DIKMTQSPSSMYASLGERVTIICKASQDINNYLSWFQQKPGKSPKTLIYRANRLAEGVPSRFSGIGSGQDYSLTISSLEYEDMGIYYCLQYDEFPLTFGAGTKLELK | > 2e+06
